What was measured:
[1] = molecular target: full-length ERBB3 (pIND/TRE-based), recombinant and overexpressed in CHO cells (human) (UniProt P21860); experiment: cross-linking
[2] = molecular target: soluble extracellular domains (ECD) of ERBB3, V5 and His6 epitope-tagged (human) (UniProt P21860); experiment: cross-linking

Substance	stoichiometry N [1]	stoichiometry N [2]
full-length ERBB3 (pIND/TRE-based), recombinant and overexpressed in CHO cells (from UniProt P21860 20-1342) (receptor)	2	–
soluble extracellular domains (ECD) of ERBB3, V5 and His6 epitope-tagged (from UniProt P21860 20-643) (domain or fragment)	–	2
